We go through two molecules from PMC13000311 (Nature Communications, 2026).

B1: human flotillin-2 (as in the purified complex used for cryo-EM) (natural protein, UniProt Q14254 1-428, looked up)
chain: MGNCHTVGPNEALVVSGGCCGSDYKQYVFGGWAWAWWCISDTQRISLEIMTLQPRCEDVETAEGVALTVTGVAQVKIMTEKELLAVACEQFLGKNVQDIKNVVLQTLEGHLRSILGTLTVEQIYQDRDQFAKLVREVAAPDVGRMGIEILSFTIKDVYDKVDYLSSLGKTQTAVVQRDADIGVAEAERDAGIREAECKKEMLDVKFMADTKIADSKRAFELQKSAFSEEVNIKTAEAQLAYELQGAREQQKIRQEEIEIEVVQRKKQIAVEAQEILRTDKELIATVRRPAEAEAHRIQQIAEGEKVKQVLLAQAEAEKIRKIGEAEAAVIEAMGKAEAERMKLKAEAYQKYGDAAKMALVLEALPQIAAKIAAPLTKVDEIVVLSGDNSKVTSEVNRLLAELPASVHALTGVDLSKIPLIKKATGVQV
B2: human flotillin-1 with a C-terminal 3× FLAG tag (natural protein, UniProt O75955 1-427, looked up)
chain: MFFTCGPNEAMVVSGFCRSPPVMVAGGRVFVLPCIQQIQRISLNTLTLNVKSEKVYTRHGVPISVTGIAQVKIQGQNKEMLAAACQMFLGKTEAEIAHIALETLEGHQRAIMAHMTVEEIYKDRQKFSEQVFKVASSDLVNMGISVVSYTLKDIHDDQDYLHSLGKARTAQVQKDARIGEAEAKRDAGIREAKAKQEKVSAQYLSEIEMAKAQRDYELKKAAYDIEVNTRRAQADLAYQLQVAKTKQQIEEQRVQVQVVERAQQVAVQEQEIARREKELEARVRKPAEAERYKLERLAEAEKSQLIMQAEAEAASVRMRGEAEAFAIGARARAEAEQMAKKAEAFQLYQEAAQLDMLLEKLPQVAEEISGPLTSANKITLVSSGSGTMGAAKVTGEVLDILTRLPESVERLTGVSISQVNHKPLRTA

Data set [1] concerns the target B2. Kind of data set: cryo-EM structure.
Data set [2] deals with the molecule itself. Kind of data set: cryo-EM structure.

As to B1, in data set [1], the stoichiometry N (usually a count of units in the complex or per binding partner) was 44 protomers (22 flotillin-1 and 22 flotillin-2).

Turning to B2, the binding result in data set [2] was “binds”.
